Data reported in publication PMC5514147, “Characterization of HIV-1 integrase interaction with human Ku70 protein and initial implications for drug targeting” (Scientific Reports, 2017).

Target: T1, Ku70_1-250 mutant (N-terminal alpha/beta-domain of Ku70) with N-terminal GST-tag (human, UniProt P12956 1-250)
T1 construct: Ku70, human, residues 1-250 (N-terminal alpha/beta domain); also called Ku_1-250; Ku70 N-terminal domain; not shown: GST, N-terminal, kept
Experiment: pull-down; GST-pull-down: GST-Ku70 proteins (or GST) held on glutathione-agarose, His6-IN proteins as prey; buffer A (20 mM Hepes pH 7.5, 100 mM NaCl, 7.5 mM MgCl2, 2 mM 2-mercaptoethanol, 50 ug/ml BSA, 0.1% NP40), room temperature, Western blot; Kd from increasing IN at 50 nM Ku70 mutant
Conditions: both partners purified

T1 sequence (P12956 1-250, change not shown): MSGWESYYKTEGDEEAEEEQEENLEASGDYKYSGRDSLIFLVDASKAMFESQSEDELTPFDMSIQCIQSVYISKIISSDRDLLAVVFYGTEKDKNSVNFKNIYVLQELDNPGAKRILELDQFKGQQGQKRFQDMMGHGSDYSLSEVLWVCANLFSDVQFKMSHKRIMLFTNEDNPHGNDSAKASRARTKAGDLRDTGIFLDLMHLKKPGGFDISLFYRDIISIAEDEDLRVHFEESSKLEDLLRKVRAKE

B1: IN_1-220 (HIV-1 integrase with truncated C-terminal domain), N-terminal His6-tag (domain or fragment)
chain: FLDGIDKAQDEHEKYHSNWRAMASDFNLPPVVAKEIVASCDKCQLKGEAMHGQVDCSPGIWQLDCTHLEGKVILVAVHVASGYIEAEVIPAETGQETAYFLLKLAGRWPVKTIHTDNGSNFTGATVRAACWWAGIKQEFGIPYNPQSQGVVESMNKELKKIIGQVRDQAEHLKTAVQMAVFIHNFKRKGGIGGYSAGERIVDIIATDIQTKELQKQITKI
notes: not shown: His6, N-terminal, kept
  Kd: 120 ± 30 nM
